Source: the supplement of paper PMC7877785
± gives the uncertainty stated by the source.

Test: self-splicing fitness, log relative to wild type (ln ratio); higher = more splicing; Tetrahymena group I intron in knt gene, E. coli kanamycin selection, DiMSum; sequences stand for … in CUCUCU…GGAGGGAAAAGUUAUCAGGCAUGCACCUGGUAGCUAGUCUUUAAACCAAUAGAUUGCAUCGGUUUAAAAGGCAAGACCGUCAAAUUGCGGGAAAGGGGUCAACAGCCGUUCAGUACCAAGUCUCAGGGGAAACUUUGAGAUGGCCUUGCAAAGGGUAUGGUAAUAAGCUGACGGACAUGGUCCUAACCACGCAGCCAAGUCCUAAGUCAACAGAUCUUCUGUUGAUAUGGAUGCAGUUCACAGACUAAAUGUCGGUCGGGGAAGAUGUAUUCUUCUCAUAAGAUAUAGUCGGACCUCUCCUUAAUGGGAGCUAGCGGAUGAAGUGAUGCAACACUGGAGCCGCUGGGAACUAAUUUGUAUGCGAAAGUAUAUUGAUUAGUUUUGGAGUACUCGUGGUCG
In short: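 Fitness was computed with DiMSum as the error-weighted combination of replicate fold changes, kanamycin versus none, each normalised to wild type. The library randomised all eight intron nucleotides of the P1ex region, with the intron placed in the knt kanamycin-resistance gene on pET-22b(+) in E. coli BL21(DE3). Six replicate transformations were grown overnight at 37°C or 30°C on LB agar with or without 25 μg/mL kanamycin, plus 100 μg/mL carbenicillin, 50 μM IPTG and 0.2% rhamnose. Pooled colonies were amplicon-sequenced on an Illumina HiSeq 2500.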

Row | Sequence | self-splicing fitness (ln) (30 °C) | self-splicing fitness (ln) (37 °C)
1 | GAGGAGCAAUAUUACGCUCA | -0.973 ± 0.24 | -0.181 ± 0.27
2 | GAGGAGCAAUAUUACGGAAA | -3.13 ± 0.16 | -2.94 ± 0.26
3 | GAGGAGCAAUAUUACGGCUA | -1.75 ± 0.12 | -1.37 ± 0.11
4 | GAGGAGCAAUAUUACGGGAC | -2.42 ± 0.27 | -2.41 ± 0.27
5 | GAGGAGCAAUAUUACGGGGG | -3.09 ± 0.27 | -3.13 ± 0.47
6 | GAGGAGCAAUAUUACGUCGC | – | -1.54 ± 0.33
7 | GAGGAGCAAUAUUACGUGGU | -4.05 ± 0.34 | -2.77 ± 0.33
8 | GAGGAGCAAUAUUACGUGUG | -2.33 ± 0.22 | -2.54 ± 0.26
9 | GAGGAGCAAUAUUACGUGUU | -3.03 ± 0.21 | -3.82 ± 0.42
10 | GAGGAGCAAUAUUACGUUCA | -1.18 ± 0.081 | -0.275 ± 0.11
11 | GAGUAGCAAUAUUACGAAGG | – | -2.74 ± 0.44
12 | GAGUAGCAAUAUUACGACAG | -3.07 ± 0.44 | -2.99 ± 0.24
13 | GAGUAGCAAUAUUACGACAU | -0.282 ± 0.014 | -0.127 ± 0.033
14 | GAGUAGCAAUAUUACGACGG | -2.74 ± 0.2 | -1.57 ± 0.25
15 | GAGUAGCAAUAUUACGAGUG | -2.34 ± 0.091 | -0.452 ± 0.11
16 | GAGUAGCAAUAUUACGAUAG | -3.53 ± 0.26 | -2.61 ± 0.28
17 | GAGUAGCAAUAUUACGAUCA | 0.0664 ± 0.19 | -0.761 ± 0.21
18 | GAGUAGCAAUAUUACGAUCC | -1.55 ± 0.092 | -0.509 ± 0.11
19 | GAGUAGCAAUAUUACGAUGU | -2.23 ± 0.11 | -0.716 ± 0.12
20 | GAGUAGCAAUAUUACGAUUA | -0.577 ± 0.092 | -0.317 ± 0.081
21 | GAGUAGCAAUAUUACGGACU | -0.25 ± 0.072 | -0.487 ± 0.096
22 | GAGUAGCAAUAUUACGGAGG | -3.45 ± 0.36 | -0.837 ± 0.36
23 | GAGUAGCAAUAUUACGGGCA | -1.18 ± 0.22 | -1.05 ± 0.19
24 | GAGUAGCAAUAUUACGGGUC | -2.57 ± 0.2 | -1.81 ± 0.18

Row | Sequence | self-splicing fitness (ln) (30 °C) | self-splicing fitness (ln) (37 °C)
25 | GAGUAGCAAUAUUACGGGUG | -2.78 ± 0.14 | -1.71 ± 0.14
26 | GAGUAGCAAUAUUACGGUGA | -1.93 ± 0.16 | -1.62 ± 0.14
27 | GAGUAGCAAUAUUACGUGGC | -2.33 ± 0.15 | -2.03 ± 0.28
28 | GAGUAGCAAUAUUACGUGGG | -3.53 ± 0.24 | -2.94 ± 0.23
29 | GAGUAGCAAUAUUACGUUAA | -3.94 ± 0.22 | -2.33 ± 0.18
30 | GAGUAGCAAUAUUACGUUAG | -3.69 ± 0.37 | -2.96 ± 0.34
31 | GAUAAGCAAUAUUACGAAUG | -1.28 ± 0.14 | -0.794 ± 0.15
32 | GAUAAGCAAUAUUACGAUCG | -0.76 ± 0.12 | -0.691 ± 0.14
33 | GAUAAGCAAUAUUACGAUCU | 0.509 ± 0.17 | -1.55 ± 0.19
34 | GAUAAGCAAUAUUACGAUUU | -0.385 ± 0.083 | 1.36 ± 0.12
35 | GAUAAGCAAUAUUACGCAUG | -1.21 ± 0.084 | -0.777 ± 0.11
36 | GAUAAGCAAUAUUACGCCUA | -0.016 ± 0.19 | -0.316 ± 0.19
37 | GAUAAGCAAUAUUACGCCUU | -0.931 ± 0.1 | -0.199 ± 0.14
38 | GAUAAGCAAUAUUACGCGAG | -1.04 ± 0.073 | -0.376 ± 0.079
39 | GAUAAGCAAUAUUACGCGCU | -1.44 ± 0.14 | -1.47 ± 0.15
40 | GAUAAGCAAUAUUACGCGUA | -0.996 ± 0.14 | -0.968 ± 0.16
41 | GAUAAGCAAUAUUACGCGUC | -4.66 ± 0.36 | -2.53 ± 0.33
42 | GAUAAGCAAUAUUACGCUGG | -2.66 ± 0.14 | -2.04 ± 0.2
43 | GAUAAGCAAUAUUACGGAUU | -3.19 ± 0.14 | -1.91 ± 0.12
44 | GAUAAGCAAUAUUACGGCAC | -0.252 ± 0.15 | -0.637 ± 0.17
45 | GAUAAGCAAUAUUACGGCCC | -0.576 ± 0.19 | -0.0157 ± 0.28
46 | GAUAAGCAAUAUUACGGCUU | -0.701 ± 0.1 | -0.0417 ± 0.14
47 | GAUAAGCAAUAUUACGGUGC | -2.8 ± 0.19 | -2.17 ± 0.22
48 | GAUAAGCAAUAUUACGUAAC | -1.22 ± 0.1 | -0.811 ± 0.16
